The record followed here is article PMC3594281.

One may read the Kd as the concentration at which binding is half-saturated. Read a low Kd as tighter binding.

In the first series the target is T1, Hyper-IL-6 (sIL-6R/IL-6 fusion) (UniProt P08887 20-323+P05231:30-212, internal_change). As to the kind of experiment: filter binding.
In the case of GGGTGGGTGGGTGGGT (structured_DNA) [AID-1 (T30923)], the Kd was 209 ± 96 nM.

For the molecule GGGUGUGUGGGUGGGU (structured_RNA) [rAID-1-G6U], the binding result is “no binding”.

GGGTGGGAGGGTGGGT (structured_DNA) [AID-1-T8A] displayed a Kd of 316 ± 59 nM.

Regarding GGGGAGGCUGUGGUGAUUG (structured_RNA) [AIR-3A-G17/18U], the binding result was “no binding”.

In turn, GGGUGGGUGGGUGGG (structured_RNA) [rAID-1-U] gave a Kd of 199 ± 65 nM.

Take GTGGTGGGTGGGTGGGT (structured_DNA) [T30175]: binding was put at a Kd of 293 ± 94 nM.

On to GTTTGTGTTTGTGTGT (ssDNA) [NK3], for which the binding result was “no binding”.

As for GGGTGGGTGGGTGGGA (structured_DNA) [AID-1-T16A], the Kd was 693 ± 392 nM.

With GGGGAGGCUGUGGUGAGGG (structured_RNA) [AIR-3A], the Kd is 82 ± 9 nM.

GGGTGGGTGGGTGGG (structured_DNA) [AID-1-T] gave a Kd of 127 ± 79 nM.

On to GGGUGGGUGGGUGGGU (structured_RNA) [rAID-1], for which binding was put at a Kd of 208 ± 53 nM.

The molecule GGGTGGGTGGGAGGGT (structured_DNA) [AID-1-T12A] displayed a Kd of 234 ± 71 nM.

In turn, GGGAGGGTGGGTGGGT (structured_DNA) [AID-1-T4A] gave a Kd of 420 ± 160 nM.

The target in another series is IL-6 (human, UniProt P05231 30-212). Put plainly: filter binding.
IL-6, sequence (P05231 30-212): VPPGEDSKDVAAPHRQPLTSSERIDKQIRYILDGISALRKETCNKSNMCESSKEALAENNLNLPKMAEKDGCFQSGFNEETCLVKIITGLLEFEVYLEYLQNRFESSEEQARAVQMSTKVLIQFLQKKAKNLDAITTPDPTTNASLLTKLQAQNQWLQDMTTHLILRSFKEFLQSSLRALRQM
For the molecule GGGTGGGTGGGTGGGT (structured_DNA) [AID-1 (T30923)], the binding result is “no binding”.

Regarding GTGGTGGGTGGGTGGGT (structured_DNA) [T30175], the binding result is reported as “no binding”.

A further series addresses T1, Hyper-IL-6 (sIL-6R/IL-6 fusion). Put plainly: filter binding. The source holds these as a separate data set.
On to TGGTGGGTGGGTGGGT (structured_DNA) [AID-1-G1T], for which the binding result was “no binding”.

With GGTGGTGGTGGT (structured_DNA) [d(GGT)4], the binding result is on record as “no binding”.

With GGGTGGGTGGGTGTGT (structured_DNA) [AID-1-G14T], the binding result is reported as “no binding”.

With GGTTGGGTGGGTGGGT (structured_DNA) [AID-1-G3T], the binding result is “no binding”.

Turning to GTGTGTGTGTGTGTGT (ssDNA) [PolyGT], the binding result is “no binding”.

Regarding GGGGAGGCUGUGGUGAUGG (structured_RNA) [AIR-3A-G17U], the binding result was “no binding”.

For GGTTGGTGTGGTTGG (structured_DNA) [TBA], the binding result was “no binding”.

With GTGTGGGTGGGTGGGT (structured_DNA) [AID-1-G2T], the binding result was “no binding”.

In the case of GGGTGAGTGGGTGAGT (ssDNA) [AID-1-G6A/G14A], the binding result is recorded as “no binding”.

GGGTGTGTGGGTGGGT (structured_DNA) [AID-1-G6T]: the binding result is on record as “no binding”.

Consider GGGTGAGTGGGTGGGT (structured_DNA) [AID-1-G6A], for which the binding result is recorded as “no binding”.

For the molecule GGGGTGGGGTGGGGTGGGGT (structured_DNA) [d(GGGGT)4], the binding result is “no binding”.

With GGGTGGGTGTGTGGGT (structured_DNA) [AID-1-G10T], the binding result is “no binding”.

The target of a further series is thrombin (UniProt P00734;P00734 328-363;364-622). As to the kind of experiment: filter binding.
For GGGTGGGTGGGTGGGT (structured_DNA) [AID-1 (T30923)], the binding result was “no binding”.

A further series deals with T1, Hyper-IL-6 (sIL-6R/IL-6 fusion). Put plainly: SPR. In general terms: Surface plasmon resonance follows binding to a sensor surface in real time, without labels.
On to GGGTGGGTGGGTGGGT (structured_DNA) [AID-1 (T30923)], for which the Kd stood at 490 nM.

The target is the same in another series. Put plainly: filter binding. The source holds these as a separate data set.
GGGAGGGAGGGAGGGA (structured_DNA) [AID-1+A] returned a Kd of 691 ± 271 nM.
